Laboratory results reported in paper PMC2120552.
“And” between values parts separate entries of the source, which are not always exact repeats. Equal values may be shown once.

Biological target: synthetic beta1 peptide, identical in sequence to the complete cytoplasmic domain of the beta1 integrin subunit
Test: pull-down

- percent of the protein in the lysate bound: 10% and > 10%
Substance: alpha-actinin (from UniProt P05094 1-893) (natural protein)
